Reference: the RNAGym collection of RNA variant scans (doi:10.1093/molbev/msab373)

B1: Azoarcus group I ribozyme (parent)
chain: GUGCCUUGCGCCGGGAAACCACGCAAGGGAUGGUGUCAAAUUCGGCGAAACCUAAGCGCCCGCCCGGGCGUAUGGCAACGCCGAGCCAAGCUUCGGCGCCUGCGCCGAUGAAGGUGUAGAGACUAGACGGCACCCACCUAAGGCAAACGCUAUGGUGAAGGCAUAGUCCAGGGAGUGGCGAAAGUCACACAAACCGG

Variants of: B1
Assay: reverse-splicing fitness (ratio to wild type); higher = more active; in vitro selection; Mg2+ level not given
How it was run: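 An in vitro group I ribozyme library with randomized positions was T7-transcribed and gel-purified. In triplicate, 10 pmol RNA in EPPS pH 7.5 was reacted with 50 pmoles of a 30-nt RNA substrate for 1 h at 37 °C across several added MgCl2 levels (1–48 mM), then stopped with EDTA. Products were reverse transcribed from a substrate-complementary primer, PCR-amplified and sequenced (HiSeq 4000). Fitness is a variant's read proportion after selection over that before, normalised to wild type.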

Variant	reverse-splicing fitness
C82G A111G A120G A145U C169G U176C	0.0187
C82G A111G A120G A145U C169G U176G	0.0044
C82G A111G A120G A145U C169G U176A	0.0149
C82G A111G A120G C150G C169A U176A	0.0118
C82G A111G A120G C150G C169A U176C	0.0135
C82G A111G A120G C150G C169A U176G	0.00685
C82G A111G A120U A145C C150U	0.0153
C82G A111G A120U A145C C150A	0.00572
C82G A111G A120U A145C C150G	0.00878
C82G A111G A120U A145C C150A C169U	0.00246
C82G A111G A120U A145C C150A C169G	0.00251
C82G A111G A120U A145C C150A C169A	0.00228
C82G A111G A120U A145G C150U	0.0498
C82G A111G A120U A145G C150G	0.0102
C82G A111G A120U A145G C150A	0.0116
C82G A111G A120U A145U C169A U176G	0.0018
C82G A111G A120U A145U C169A U176A	0.00206
C82G A111G A120U A145U C169A U176C	0.00207
C82G A111G A120U A145G C150U C169G	0.00707
C82G A111G A120U A145G C150U C169A	0.00681
C82G A111G A120U A145G C150U C169U	0.00611

Variant	reverse-splicing fitness
C82G A111G A120U A145U C150U C169U U176G	0.00196
C82G A111G A120U A145U C150U C169U U176C	0.00263
C82G A111G A120U A145U C150U C169U U176A	0.00291
C82G A111G A120U A145U C150U C169G U176C	0.00343
C82G A111G A120U A145U C150U C169G U176G	0.00218
C82G A111G A120U A145U C150U C169G U176A	0.0031
C82G A111G A120U C150A	0.00949
C82G A111G A120G C169U U176C	0.0198
C82G A111G A120G C169U U176A	0.0199
C82G A111G A120G C169U U176G	0.00595
C82G A111G A120G A145U U176A	0.0167
C82G A111G A120G A145U U176C	0.0242
C82G A111G A120G A145U U176G	0.00543
C82G A111G A120U A145G U176G	0.00435
C82G A111G A120U A145G U176A	0.0143
C82G A111G A120U A145G U176C	0.0283
C82G A111G A120U C150A C169U U176G	0.00229
C82G A111G A120U C150A C169U U176A	0.00523
C82G A111G A120U C150A C169U U176C	0.00456
C82G A111G A120G A145U C150G C169G U176A	0.00751
C82G A111G A120G A145U C150G C169G U176C	0.00676

Variant	reverse-splicing fitness
C82G A111G A120G A145U C150G C169G U176G	0.00457
C82G A111G A120U A145U C150G C169G U176C	0.00256
C82G A111G A120U A145U C150G C169G U176A	0.0025
C82G A111G A120U A145U C150G C169G U176G	0.00197
C82G A111G A120U A145G C150G C169A U176G	0.00448
C82G A111G A120U A145G C150G C169A U176A	0.0115
C82G A111G A120U A145G C150G C169A U176C	0.0099
C82G A111G A120U A145G C150G C169G U176C	0.00607
C82G A111G A120U A145G C150G C169G U176A	0.00894
C82G A111G A120U A145G C150G C169G U176G	0.00372
C82G A111G A120G C150G C169G	0.00788
C82G A111G A120G C150G C169U	0.0094
C82G A111G A120G C150G C169A	0.00983
C82G A111G A120U A145G C169U U176G	0.00164
C82G A111G A120U A145G C169U U176A	0.00415
C82G A111G A120U A145G C169U U176C	0.00485
C82G A111G A120U A145C U176G	0.0054
C82G A111G A120U A145C U176C	0.0205
C82G A111G A120U A145C U176A	0.0131
C82G A111G A120U A145G C150U C169U U176C	0.00574
C82G A111G A120U A145G C150U C169U U176A	0.00467

Variant	reverse-splicing fitness
C82G A111G A120U A145G C150U C169U U176G	0.00229
C82G A111G A120G C169A U176G	0.00429
C82G A111G A120G C169A U176C	0.0232
C82G A111G A120G C169A U176A	0.022
C82G A111G A120G A145U C150U U176C	0.0212
C82G A111G A120G A145U C150U U176A	0.0125
C82G A111G A120G A145U C150U U176G	0.00626
C82G A111G A120U A145U C150A U176C	0.00553
C82G A111G A120U A145U C150A U176A	0.00578
C82G A111G A120U A145U C150A U176G	0.00244
C82G A111G A120U A145C C150U U176G	0.00303
C82G A111G A120U A145C C150U U176C	0.00541
C82G A111G A120U A145C C150U U176A	0.00647
C82G A111G A120U A145U C169U U176G	0.00199
C82G A111G A120U A145U C169U U176A	0.00226
C82G A111G A120U A145U C169U U176C	0.0031
C82G A111G A120U A145G C169A U176G	0.00176
C82G A111G A120U A145G C169A U176C	0.00535
C82G A111G A120U A145G C169A U176A	0.00574
C82G A111G A120U A145U U176C	0.0296
C82G A111G A120U A145U U176G	0.00582
